From patent US20240141067A1 (RALLYBIO IPA, published 2024)

B1: RLYB212 (antibody, human IgG1, kappa, V domains shown)
VH: QVQLQQSGPGLVKPSQTLSLTCAISGDSVSSNSAAWNWIRQSPSRGLEWLGRTYFRSNWYNDYAASVKSRITINQDTSKNQLSLQLNSVTPEDTAVYYCARDGAWGGSSWWPGLPHHYYSGMDVWGQGTTVTVSS
VL: EIVLTQSPATLSLSPGERATLSCRASQSVSSYLAWYQQKPGQAPRLLIYDASKRATGIPARFSGSGSGTDFSLTIRSLEPEDFAVYYCQQRSDWQGLTFGGGTKVEIKR
notes: also called monoclonal RLYB212; monospecific monoclonal antibody RLYB212

What was measured:
[1] = target: APLDQ GPIIIa (murine integrin β3 humanized to carry the HPA-1a epitope, in GPIIb-IIIa) on APLDQ mouse platelets (mouse) (UniProt O54890); test: flow cytometry saturation-binding curves on APLDQ platelets
[2] = target: APLDQ GPIIIa (murine integrin β3 humanized to carry the HPA-1a epitope, in GPIIb-IIIa) on APLDQ mouse platelets (mouse) (UniProt O54890); test: flow cytometry saturation-binding curve on APLDQ homozygous platelets
[3] = target: T1, HPA-1a (Leu33 form of human GPIIIa / integrin β3, in GPIIb-IIIa) on HPA-1a/a human platelets (human, UniProt P05106 27-788; P08514 32-1039); test: flow cytometry on washed human platelets, FITC goat anti-human IgG
T1 construct: whole, on cells; Native antigen on washed platelets from HPA-1a/a individuals; also called HPA-1a alloantigen; HPA-1a expressed on GPIIIa
T1 sequence (P05106 27-788, chain 1 of 2): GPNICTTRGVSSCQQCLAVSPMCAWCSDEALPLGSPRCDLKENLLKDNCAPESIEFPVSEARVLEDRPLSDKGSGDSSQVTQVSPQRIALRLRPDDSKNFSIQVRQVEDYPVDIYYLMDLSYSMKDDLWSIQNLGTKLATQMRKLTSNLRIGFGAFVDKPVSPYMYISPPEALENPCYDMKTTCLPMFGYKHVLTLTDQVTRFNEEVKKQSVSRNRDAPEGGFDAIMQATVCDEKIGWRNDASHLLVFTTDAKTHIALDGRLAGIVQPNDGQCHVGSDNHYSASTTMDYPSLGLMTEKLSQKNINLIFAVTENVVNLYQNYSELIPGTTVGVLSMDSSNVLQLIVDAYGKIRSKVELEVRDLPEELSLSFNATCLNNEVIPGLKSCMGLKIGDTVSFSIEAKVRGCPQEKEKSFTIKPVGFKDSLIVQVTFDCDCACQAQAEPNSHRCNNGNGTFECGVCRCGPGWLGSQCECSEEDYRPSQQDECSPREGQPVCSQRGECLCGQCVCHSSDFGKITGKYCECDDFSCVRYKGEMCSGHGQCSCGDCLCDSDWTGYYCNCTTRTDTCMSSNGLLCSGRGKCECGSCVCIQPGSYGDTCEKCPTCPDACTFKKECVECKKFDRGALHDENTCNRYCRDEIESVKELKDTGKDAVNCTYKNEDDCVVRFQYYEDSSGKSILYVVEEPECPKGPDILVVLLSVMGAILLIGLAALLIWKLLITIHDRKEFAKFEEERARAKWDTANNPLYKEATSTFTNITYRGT
T1 sequence (P08514 32-1039, chain 2 of 2): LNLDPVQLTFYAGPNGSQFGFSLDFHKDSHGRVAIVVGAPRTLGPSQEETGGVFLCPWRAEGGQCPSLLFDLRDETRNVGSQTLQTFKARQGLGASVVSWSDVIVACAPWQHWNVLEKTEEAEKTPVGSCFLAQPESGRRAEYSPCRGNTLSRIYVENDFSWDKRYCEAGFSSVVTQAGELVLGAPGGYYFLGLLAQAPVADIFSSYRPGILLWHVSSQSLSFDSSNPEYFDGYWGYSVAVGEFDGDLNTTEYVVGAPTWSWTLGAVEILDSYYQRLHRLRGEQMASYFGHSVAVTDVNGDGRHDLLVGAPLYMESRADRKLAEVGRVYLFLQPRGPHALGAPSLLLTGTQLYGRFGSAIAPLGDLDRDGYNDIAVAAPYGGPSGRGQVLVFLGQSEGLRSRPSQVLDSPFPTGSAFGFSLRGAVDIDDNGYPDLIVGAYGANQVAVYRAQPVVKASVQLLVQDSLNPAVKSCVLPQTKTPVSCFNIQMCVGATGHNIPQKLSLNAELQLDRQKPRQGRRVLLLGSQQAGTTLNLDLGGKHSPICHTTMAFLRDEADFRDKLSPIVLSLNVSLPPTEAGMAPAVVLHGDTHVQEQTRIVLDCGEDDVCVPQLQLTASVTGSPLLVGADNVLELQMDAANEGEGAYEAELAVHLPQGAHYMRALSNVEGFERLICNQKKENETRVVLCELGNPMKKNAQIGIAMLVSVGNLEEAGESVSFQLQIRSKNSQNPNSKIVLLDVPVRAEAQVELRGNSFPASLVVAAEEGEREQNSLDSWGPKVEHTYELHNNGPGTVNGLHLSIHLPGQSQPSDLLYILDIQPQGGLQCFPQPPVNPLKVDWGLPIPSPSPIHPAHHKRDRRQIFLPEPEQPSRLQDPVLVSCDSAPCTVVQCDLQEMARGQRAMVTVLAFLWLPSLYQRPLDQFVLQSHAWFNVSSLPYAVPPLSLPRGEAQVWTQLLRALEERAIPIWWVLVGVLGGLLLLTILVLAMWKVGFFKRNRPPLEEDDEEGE

APLDQ GPIIIa (murine integrin β3 humanized to carry the HPA-1a epitope, in GPIIb-IIIa) on APLDQ mouse platelets (mouse), sequence (O54890 26-787, chain 1 of 2): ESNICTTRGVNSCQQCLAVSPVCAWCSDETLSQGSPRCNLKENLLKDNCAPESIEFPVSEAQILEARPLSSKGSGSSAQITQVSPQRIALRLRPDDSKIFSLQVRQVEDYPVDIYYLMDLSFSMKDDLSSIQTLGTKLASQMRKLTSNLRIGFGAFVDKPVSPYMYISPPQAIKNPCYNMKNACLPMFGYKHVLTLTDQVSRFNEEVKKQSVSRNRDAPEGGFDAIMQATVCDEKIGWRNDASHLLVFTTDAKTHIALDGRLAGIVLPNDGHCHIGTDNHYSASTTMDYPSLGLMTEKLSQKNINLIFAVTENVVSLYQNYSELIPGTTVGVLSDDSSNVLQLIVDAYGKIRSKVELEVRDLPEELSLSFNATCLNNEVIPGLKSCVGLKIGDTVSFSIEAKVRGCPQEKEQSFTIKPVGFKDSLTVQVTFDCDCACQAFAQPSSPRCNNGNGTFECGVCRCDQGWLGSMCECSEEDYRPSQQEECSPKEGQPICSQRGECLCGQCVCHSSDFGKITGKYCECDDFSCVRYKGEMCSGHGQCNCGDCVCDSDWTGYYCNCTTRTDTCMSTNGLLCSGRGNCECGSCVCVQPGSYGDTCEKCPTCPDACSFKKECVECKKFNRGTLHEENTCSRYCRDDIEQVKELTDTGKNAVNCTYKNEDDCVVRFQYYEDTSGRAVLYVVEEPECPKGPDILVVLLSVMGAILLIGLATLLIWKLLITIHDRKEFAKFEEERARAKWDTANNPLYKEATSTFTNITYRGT
APLDQ GPIIIa (murine integrin β3 humanized to carry the HPA-1a epitope, in GPIIb-IIIa) on APLDQ mouse platelets (mouse), sequence (Q9QUM0 32-1033, chain 2 of 2, further chain): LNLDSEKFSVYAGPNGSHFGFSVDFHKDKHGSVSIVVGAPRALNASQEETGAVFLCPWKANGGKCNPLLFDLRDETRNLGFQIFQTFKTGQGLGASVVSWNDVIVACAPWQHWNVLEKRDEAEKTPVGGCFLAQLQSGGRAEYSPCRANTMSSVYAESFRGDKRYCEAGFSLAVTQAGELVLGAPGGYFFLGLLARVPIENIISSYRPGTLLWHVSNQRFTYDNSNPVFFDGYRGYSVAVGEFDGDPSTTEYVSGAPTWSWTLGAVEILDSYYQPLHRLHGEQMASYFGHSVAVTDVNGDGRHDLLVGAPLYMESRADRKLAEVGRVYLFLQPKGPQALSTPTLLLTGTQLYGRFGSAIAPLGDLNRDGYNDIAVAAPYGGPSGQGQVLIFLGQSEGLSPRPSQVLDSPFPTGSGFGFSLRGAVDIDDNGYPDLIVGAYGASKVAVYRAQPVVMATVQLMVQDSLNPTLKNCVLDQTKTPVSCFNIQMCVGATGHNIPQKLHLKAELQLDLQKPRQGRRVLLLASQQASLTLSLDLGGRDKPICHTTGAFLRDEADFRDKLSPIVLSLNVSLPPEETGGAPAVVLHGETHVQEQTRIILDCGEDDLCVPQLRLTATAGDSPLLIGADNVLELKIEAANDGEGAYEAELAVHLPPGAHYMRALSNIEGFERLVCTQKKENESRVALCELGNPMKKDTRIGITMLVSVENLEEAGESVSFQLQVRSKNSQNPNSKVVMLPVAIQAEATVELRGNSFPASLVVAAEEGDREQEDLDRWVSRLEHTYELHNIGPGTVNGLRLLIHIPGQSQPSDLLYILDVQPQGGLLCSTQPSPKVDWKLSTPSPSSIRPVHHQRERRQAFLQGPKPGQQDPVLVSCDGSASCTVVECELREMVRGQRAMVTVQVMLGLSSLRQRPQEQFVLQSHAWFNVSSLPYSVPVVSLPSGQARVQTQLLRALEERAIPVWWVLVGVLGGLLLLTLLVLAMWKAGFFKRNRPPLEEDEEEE

Row | Molecule | occupancy of available GPIIb-IIIa receptors at ~4 IU/mL [1] [%] | concentration that fully saturates GPIIb-IIIa receptors [2] [IU/ml] | binding result [3]
1 | RLYB211 (antibody) | < 10 |  | 
2 | B1 | < 10 | > 100 | binds
